Source: patent US20260001928A1 (CORTERIA PHARMACEUTICALS, priority 2022, published 2026)
*1 amine or outer side, *2 acyl side, *3 side chain or, on linkers, in order; H or OH if unused. Primed or numbered codes have the meaning given here. Where no end group is shown, it is not given here. Side-chain parts run from the residue outwards. [ ]: non-standard residue; d: D form. The star is where a group is joined. Thp′ = 4-amino-tetrahydro-2H-pyran-4-yl-acetic acid, O=C(CC1(N[*:1])CCOCC1)[*:2]; C18 diacid = O=C(O)CCCCCCCCCCCCCCCCC(=O)*; C16 diacid = O=C(O)CCCCCCCCCCCCCCC(=O)*; γGlu = O=C(O)[C@H](CCC(=O)[*:2])N[*:1]; Thp″ = not defined here; AEEA = NCCOCCOCC(=O)O

T1: CRF1R receptor (UniProt P34998 24-415, limits assumed)
T1 sequence (looked up): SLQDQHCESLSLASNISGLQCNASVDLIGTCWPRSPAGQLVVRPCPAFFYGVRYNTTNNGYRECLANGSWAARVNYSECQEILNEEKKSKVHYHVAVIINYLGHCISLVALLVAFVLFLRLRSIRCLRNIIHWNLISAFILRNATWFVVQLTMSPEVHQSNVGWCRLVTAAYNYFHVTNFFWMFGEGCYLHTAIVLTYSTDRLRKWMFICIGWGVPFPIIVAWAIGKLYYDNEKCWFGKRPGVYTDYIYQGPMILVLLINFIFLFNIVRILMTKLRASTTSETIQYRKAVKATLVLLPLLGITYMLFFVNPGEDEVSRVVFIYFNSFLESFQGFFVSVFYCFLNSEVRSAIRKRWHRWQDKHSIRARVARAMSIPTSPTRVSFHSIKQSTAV


Key:
CRF1R receptor = molecular target: T1, CRF1R receptor; test: cell-based or functional assay
[1] = molecular target: human corticotropin-releasing factor 2a (CRF2a receptor) (human), Q13324; test: cell-based or functional assay
Sequence of human corticotropin-releasing factor 2a (CRF2a receptor) (human), Q13324 (Q13324 20-411): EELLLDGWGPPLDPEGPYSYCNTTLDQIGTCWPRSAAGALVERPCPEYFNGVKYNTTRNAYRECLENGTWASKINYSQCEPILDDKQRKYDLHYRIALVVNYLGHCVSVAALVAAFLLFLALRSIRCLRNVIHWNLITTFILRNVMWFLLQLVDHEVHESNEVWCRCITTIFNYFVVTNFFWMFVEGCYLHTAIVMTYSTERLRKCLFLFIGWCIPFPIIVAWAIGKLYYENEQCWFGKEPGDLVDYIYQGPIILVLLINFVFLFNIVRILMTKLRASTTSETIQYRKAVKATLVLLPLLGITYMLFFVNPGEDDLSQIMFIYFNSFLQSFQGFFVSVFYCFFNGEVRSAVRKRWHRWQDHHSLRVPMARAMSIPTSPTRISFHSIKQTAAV

Row | Binder | Emax (% I) (CRF1R receptor) [%] | EC50 [nM] (cAMP) [1] | EC50 (CRF1R receptor) [nM]
1 | VLSLD[dV]PIKLK([γGlu-C16 diacid])KILLEQEKQKKQREQAETNKQILAQV-NH2 (N-terminus assumed; SMILES CC[C@H](C)[C@H](NC(=O)[C@H](CCC(N)=O)NC(=O)[C@H](CCCCN)NC(=O)[C@H](CC(N)=O)NC(=O)[C@@H](NC(=O)[C@H](CCC(=O)O)NC(=O)[C@H](C)NC(=O)[C@H](CCC(N)=O)NC(=O)[C@H](CCC(=O)O)NC(=O)[C@H](CCCNC(=N)N)NC(=O)[C@H](CCC(N)=O)NC(=O)[C@H](CCCCN)NC(=O)[C@H](CCCCN)NC(=O)[C@H](CCC(N)=O)NC(=O)[C@H](CCCCN)NC(=O)[C@H](CCC(=O)O)NC(=O)[C@H](CCC(N)=O)NC(=O)[C@H](CCC(=O)O)NC(=O)[C@H](CC(C)C)NC(=O)[C@H](CC(C)C)NC(=O)[C@@H](NC(=O)[C@H](CCCCN)NC(=O)[C@H](CCCCNC(=O)CC[C@H](NC(=O)CCCCCCCCCCCCCCC(=O)O)C(=O)O)NC(=O)[C@H](CC(C)C)NC(=O)[C@H](CCCCN)NC(=O)[C@@H](NC(=O)[C@@H]1CCCN1C(=O)[C@H](NC(=O)[C@H](CC(=O)O)NC(=O)[C@H](CC(C)C)NC(=O)[C@H](CO)NC(=O)[C@H](CC(C)C)NC(=O)[C@@H](N)C(C)C)C(C)C)[C@@H](C)CC)[C@@H](C)CC)[C@@H](C)O)C(=O)N[C@@H](CC(C)C)C(=O)N[C@@H](C)C(=O)N[C@@H](CCC(N)=O)C(=O)N[C@H](C(N)=O)C(C)C) [SEQ ID NO 34] | 0 |  | 
2 | H-IVLSLD[dV]PIKLK([AEEA-AEEA-γGlu-C18 diacid])QILLKQERQKKQREQAEKNKQILEQV-NH2 (SMILES CC[C@H](C)[C@H](N)C(=O)N[C@H](C(=O)N[C@@H](CC(C)C)C(=O)N[C@@H](CO)C(=O)N[C@@H](CC(C)C)C(=O)N[C@@H](CC(=O)O)C(=O)N[C@@H](C(=O)N1CCC[C@H]1C(=O)N[C@H](C(=O)N[C@@H](CCCCN)C(=O)N[C@@H](CC(C)C)C(=O)N[C@@H](CCCCNC(=O)COCCOCCNC(=O)COCCOCCNC(=O)CC[C@H](NC(=O)CCCCCCCCCCCCCCCCC(=O)O)C(=O)O)C(=O)N[C@@H](CCC(N)=O)C(=O)N[C@H](C(=O)N[C@@H](CC(C)C)C(=O)N[C@@H](CC(C)C)C(=O)N[C@@H](CCCCN)C(=O)N[C@@H](CCC(N)=O)C(=O)N[C@@H](CCC(=O)O)C(=O)N[C@@H](CCCNC(=N)N)C(=O)N[C@@H](CCC(N)=O)C(=O)N[C@@H](CCCCN)C(=O)N[C@@H](CCCCN)C(=O)N[C@@H](CCC(N)=O)C(=O)N[C@@H](CCCNC(=N)N)C(=O)N[C@@H](CCC(=O)O)C(=O)N[C@@H](CCC(N)=O)C(=O)N[C@@H](C)C(=O)N[C@@H](CCC(=O)O)C(=O)N[C@@H](CCCCN)C(=O)N[C@@H](CC(N)=O)C(=O)N[C@@H](CCCCN)C(=O)N[C@@H](CCC(N)=O)C(=O)N[C@H](C(=O)N[C@@H](CC(C)C)C(=O)N[C@@H](CCC(=O)O)C(=O)N[C@@H](CCC(N)=O)C(=O)N[C@H](C(N)=O)C(C)C)[C@@H](C)CC)[C@@H](C)CC)[C@@H](C)CC)C(C)C)C(C)C) [SEQ ID NO 150] |  | 0.25 | 
3 | IVLSLD[dV]PIKLK([γGlu-C16 diacid])QILLKQERQKKQREQAEKNTQILEQV-NH2 (N-terminus assumed; SMILES CC[C@H](C)[C@H](N)C(=O)N[C@H](C(=O)N[C@@H](CC(C)C)C(=O)N[C@@H](CO)C(=O)N[C@@H](CC(C)C)C(=O)N[C@@H](CC(=O)O)C(=O)N[C@@H](C(=O)N1CCC[C@H]1C(=O)N[C@H](C(=O)N[C@@H](CCCCN)C(=O)N[C@@H](CC(C)C)C(=O)N[C@@H](CCCCNC(=O)CC[C@H](NC(=O)CCCCCCCCCCCCCCC(=O)O)C(=O)O)C(=O)N[C@@H](CCC(N)=O)C(=O)N[C@H](C(=O)N[C@@H](CC(C)C)C(=O)N[C@@H](CC(C)C)C(=O)N[C@@H](CCCCN)C(=O)N[C@@H](CCC(N)=O)C(=O)N[C@@H](CCC(=O)O)C(=O)N[C@@H](CCCNC(=N)N)C(=O)N[C@@H](CCC(N)=O)C(=O)N[C@@H](CCCCN)C(=O)N[C@@H](CCCCN)C(=O)N[C@@H](CCC(N)=O)C(=O)N[C@@H](CCCNC(=N)N)C(=O)N[C@@H](CCC(=O)O)C(=O)N[C@@H](CCC(N)=O)C(=O)N[C@@H](C)C(=O)N[C@@H](CCC(=O)O)C(=O)N[C@@H](CCCCN)C(=O)N[C@@H](CC(N)=O)C(=O)N[C@H](C(=O)N[C@@H](CCC(N)=O)C(=O)N[C@H](C(=O)N[C@@H](CC(C)C)C(=O)N[C@@H](CCC(=O)O)C(=O)N[C@@H](CCC(N)=O)C(=O)N[C@H](C(N)=O)C(C)C)[C@@H](C)CC)[C@@H](C)O)[C@@H](C)CC)[C@@H](C)CC)C(C)C)C(C)C) [SEQ ID NO 14] | 24 |  | > 250
4 | Ac-IVLSLD[dV]PIKLK([γGlu-C18 diacid])KILLEQEKQKKQREQAETN[Thp″]QILAQV-NH2 (not fully specified; reading uncertain) |  | 0.16 | 

Next, values leading:

Row | Emax (% I) (CRF1R receptor) [%] | EC50 [nM] (cAMP) [1] | EC50 (CRF1R receptor) [nM] | Binder
5 | 11 |  |  | Ac-IVLSLD[dV]PIKLK([γGlu-C18 diacid])KILLEQEKQKKQREQAETN[Thp′]QILAQV-NH2 (SMILES CC[C@H](C)[C@H](NC(C)=O)C(=O)N[C@H](C(=O)N[C@@H](CC(C)C)C(=O)N[C@@H](CO)C(=O)N[C@@H](CC(C)C)C(=O)N[C@@H](CC(=O)O)C(=O)N[C@@H](C(=O)N1CCC[C@H]1C(=O)N[C@H](C(=O)N[C@@H](CCCCN)C(=O)N[C@@H](CC(C)C)C(=O)N[C@@H](CCCCNC(=O)CC[C@H](NC(=O)CCCCCCCCCCCCCCCCC(=O)O)C(=O)O)C(=O)N[C@@H](CCCCN)C(=O)N[C@H](C(=O)N[C@@H](CC(C)C)C(=O)N[C@@H](CC(C)C)C(=O)N[C@@H](CCC(=O)O)C(=O)N[C@@H](CCC(N)=O)C(=O)N[C@@H](CCC(=O)O)C(=O)N[C@@H](CCCCN)C(=O)N[C@@H](CCC(N)=O)C(=O)N[C@@H](CCCCN)C(=O)N[C@@H](CCCCN)C(=O)N[C@@H](CCC(N)=O)C(=O)N[C@@H](CCCNC(=N)N)C(=O)N[C@@H](CCC(=O)O)C(=O)N[C@@H](CCC(N)=O)C(=O)N[C@@H](C)C(=O)N[C@@H](CCC(=O)O)C(=O)N[C@H](C(=O)N[C@@H](CC(N)=O)C(=O)NC1(CC(=O)N[C@@H](CCC(N)=O)C(=O)N[C@H](C(=O)N[C@@H](CC(C)C)C(=O)N[C@@H](C)C(=O)N[C@@H](CCC(N)=O)C(=O)N[C@H](C(N)=O)C(C)C)[C@@H](C)CC)CCOCC1)[C@@H](C)O)[C@@H](C)CC)[C@@H](C)CC)C(C)C)C(C)C)
6 | 22 |  | 100 | IVLSLD[dV]PIKLK([γGlu-γGlu-C16 diacid])QILLKQERQKKQREQAEKNKQILEQV-NH2 (N-terminus assumed; SMILES CC[C@H](C)[C@H](N)C(=O)N[C@H](C(=O)N[C@@H](CC(C)C)C(=O)N[C@@H](CO)C(=O)N[C@@H](CC(C)C)C(=O)N[C@@H](CC(=O)O)C(=O)N[C@@H](C(=O)N1CCC[C@H]1C(=O)N[C@H](C(=O)N[C@@H](CCCCN)C(=O)N[C@@H](CC(C)C)C(=O)N[C@@H](CCCCNC(=O)CC[C@H](NC(=O)CC[C@H](NC(=O)CCCCCCCCCCCCCCC(=O)O)C(=O)O)C(=O)O)C(=O)N[C@@H](CCC(N)=O)C(=O)N[C@H](C(=O)N[C@@H](CC(C)C)C(=O)N[C@@H](CC(C)C)C(=O)N[C@@H](CCCCN)C(=O)N[C@@H](CCC(N)=O)C(=O)N[C@@H](CCC(=O)O)C(=O)N[C@@H](CCCNC(=N)N)C(=O)N[C@@H](CCC(N)=O)C(=O)N[C@@H](CCCCN)C(=O)N[C@@H](CCCCN)C(=O)N[C@@H](CCC(N)=O)C(=O)N[C@@H](CCCNC(=N)N)C(=O)N[C@@H](CCC(=O)O)C(=O)N[C@@H](CCC(N)=O)C(=O)N[C@@H](C)C(=O)N[C@@H](CCC(=O)O)C(=O)N[C@@H](CCCCN)C(=O)N[C@@H](CC(N)=O)C(=O)N[C@@H](CCCCN)C(=O)N[C@@H](CCC(N)=O)C(=O)N[C@H](C(=O)N[C@@H](CC(C)C)C(=O)N[C@@H](CCC(=O)O)C(=O)N[C@@H](CCC(N)=O)C(=O)N[C@H](C(N)=O)C(C)C)[C@@H](C)CC)[C@@H](C)CC)[C@@H](C)CC)C(C)C)C(C)C) [SEQ ID NO 147]
7 | 24 |  | > 250 | IVLSLD[dV]PIKLK([γGlu-C16 diacid])QILLKQERQKKQREQAEKNVQILEQV-NH2 (N-terminus assumed; SMILES CC[C@H](C)[C@H](N)C(=O)N[C@H](C(=O)N[C@@H](CC(C)C)C(=O)N[C@@H](CO)C(=O)N[C@@H](CC(C)C)C(=O)N[C@@H](CC(=O)O)C(=O)N[C@@H](C(=O)N1CCC[C@H]1C(=O)N[C@H](C(=O)N[C@@H](CCCCN)C(=O)N[C@@H](CC(C)C)C(=O)N[C@@H](CCCCNC(=O)CC[C@H](NC(=O)CCCCCCCCCCCCCCC(=O)O)C(=O)O)C(=O)N[C@@H](CCC(N)=O)C(=O)N[C@H](C(=O)N[C@@H](CC(C)C)C(=O)N[C@@H](CC(C)C)C(=O)N[C@@H](CCCCN)C(=O)N[C@@H](CCC(N)=O)C(=O)N[C@@H](CCC(=O)O)C(=O)N[C@@H](CCCNC(=N)N)C(=O)N[C@@H](CCC(N)=O)C(=O)N[C@@H](CCCCN)C(=O)N[C@@H](CCCCN)C(=O)N[C@@H](CCC(N)=O)C(=O)N[C@@H](CCCNC(=N)N)C(=O)N[C@@H](CCC(=O)O)C(=O)N[C@@H](CCC(N)=O)C(=O)N[C@@H](C)C(=O)N[C@@H](CCC(=O)O)C(=O)N[C@@H](CCCCN)C(=O)N[C@@H](CC(N)=O)C(=O)N[C@H](C(=O)N[C@@H](CCC(N)=O)C(=O)N[C@H](C(=O)N[C@@H](CC(C)C)C(=O)N[C@@H](CCC(=O)O)C(=O)N[C@@H](CCC(N)=O)C(=O)N[C@H](C(N)=O)C(C)C)[C@@H](C)CC)C(C)C)[C@@H](C)CC)[C@@H](C)CC)C(C)C)C(C)C) [SEQ ID NO 13]
